Laboratory results taken from publication PMC10397247.
Where two headings read alike, the source gives them in different places.

T1: P2-AA-12HAA-H
T1 chain: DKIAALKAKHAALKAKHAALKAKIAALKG

T2: P2-AA-12HAA-S
T2 chain: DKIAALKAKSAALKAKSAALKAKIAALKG

T3: P2-AA-12HAA-R
T3 chain: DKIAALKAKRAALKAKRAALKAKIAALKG

T4: P2-AA-12HAA-L
T4 chain: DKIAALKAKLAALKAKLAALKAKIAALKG

T5: P2-AA-12HAA-E
T5 chain: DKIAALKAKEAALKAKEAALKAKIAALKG

T6: P2-AA-12HAA-I
T6 chain: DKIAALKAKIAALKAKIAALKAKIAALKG

T7: P2-AA-12HAA-V
T7 chain: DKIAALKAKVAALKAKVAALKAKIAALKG

T8: P2-AA-12HAA-K
T8 chain: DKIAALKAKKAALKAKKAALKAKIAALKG

T9: P2-AA-12HAA-T
T9 chain: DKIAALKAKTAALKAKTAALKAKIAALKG

T10: P2-AA-12HAA-D
T10 chain: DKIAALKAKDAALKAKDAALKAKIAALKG

T11: P2-AA-12HAA-Y
T11 chain: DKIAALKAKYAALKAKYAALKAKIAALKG

T12: P2-AA
T12 chain: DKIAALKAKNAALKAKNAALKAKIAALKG

T13: P6-AA-1HAA-L
T13 chain: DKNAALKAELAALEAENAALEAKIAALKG

T14: P6-AA-1HAA-T
T14 chain: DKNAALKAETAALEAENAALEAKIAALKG

T15: P6-AA-1HAA-Y
T15 chain: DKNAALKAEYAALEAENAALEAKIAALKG

T16: P6-AA-1HAA-D
T16 chain: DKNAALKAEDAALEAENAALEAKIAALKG

T17: P6-AA-1HAA-E
T17 chain: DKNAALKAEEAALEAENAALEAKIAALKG

T18: P6-AA-1HAA-N
T18 chain: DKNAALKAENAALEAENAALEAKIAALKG

T19: P6-AA-1HAA-H
T19 chain: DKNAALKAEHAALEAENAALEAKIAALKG

T20: P6-AA-1HAA-S
T20 chain: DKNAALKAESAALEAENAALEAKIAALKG

T21: P6-AA-1HAA-R
T21 chain: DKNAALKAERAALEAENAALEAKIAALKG

T22: P6-AA-1HAA-V
T22 chain: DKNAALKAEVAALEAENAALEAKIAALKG

T23: P6-AA-1HAA-K
T23 chain: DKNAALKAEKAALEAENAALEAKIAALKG

T24: P6-AA-12HAA-E
T24 chain: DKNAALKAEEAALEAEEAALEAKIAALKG

T25: P6-AA-12HAA-Y
T25 chain: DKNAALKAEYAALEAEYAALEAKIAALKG

T26: P6-AA-12HAA-R
T26 chain: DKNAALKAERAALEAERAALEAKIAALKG

T27: P6-AA-12HAA-T
T27 chain: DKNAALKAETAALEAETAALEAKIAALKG

T28: P6-AA-12HAA-D
T28 chain: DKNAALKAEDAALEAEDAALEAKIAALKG

T29: P6-AA-12HAA-V
T29 chain: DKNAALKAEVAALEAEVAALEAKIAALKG

T30: P6-AA-12HAA-L
T30 chain: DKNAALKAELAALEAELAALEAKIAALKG

T31: P6-AA-12HAA-H
T31 chain: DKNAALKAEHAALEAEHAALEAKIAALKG

T32: P6-AA-12HAA-K
T32 chain: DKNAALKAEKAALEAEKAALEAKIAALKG

T33: P6-AA-12HAA-S
T33 chain: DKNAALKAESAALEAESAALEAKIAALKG


Legend:
Assay in all cases: two-hybrid library CCmax;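 also: natural log of median RNA to DNA barcode read ratio; higher means stronger binding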
P2-AA-12HAA-H = molecular target: T1, P2-AA-12HAA-H; conditions: mean of both orientations
P2-AA-12HAA-S = molecular target: T2, P2-AA-12HAA-S; conditions: mean of both orientations
P2-AA-12HAA-R = molecular target: T3, P2-AA-12HAA-R; conditions: mean of both orientations
P2-AA-12HAA-L = molecular target: T4, P2-AA-12HAA-L
P2-AA-12HAA-E = molecular target: T5, P2-AA-12HAA-E
P2-AA-12HAA-I = molecular target: T6, P2-AA-12HAA-I; conditions: mean of both orientations
P2-AA-12HAA-V = molecular target: T7, P2-AA-12HAA-V; conditions: mean of both orientations
P2-AA-12HAA-K = molecular target: T8, P2-AA-12HAA-K; conditions: mean of both orientations
P2-AA-12HAA-T = molecular target: T9, P2-AA-12HAA-T; conditions: mean of both orientations
P2-AA-12HAA-D = molecular target: T10, P2-AA-12HAA-D; conditions: mean of both orientations
P2-AA-12HAA-Y = molecular target: T11, P2-AA-12HAA-Y; conditions: mean of both orientations
P2-AA = molecular target: T12, P2-AA; conditions: mean of both orientations
P6-AA-1HAA-L = molecular target: T13, P6-AA-1HAA-L; conditions: mean of both orientations
P6-AA-1HAA-T = molecular target: T14, P6-AA-1HAA-T; conditions: mean of both orientations
P6-AA-1HAA-Y = molecular target: T15, P6-AA-1HAA-Y; conditions: mean of both orientations
P6-AA-1HAA-D = molecular target: T16, P6-AA-1HAA-D; conditions: mean of both orientations
P6-AA-1HAA-E = molecular target: T17, P6-AA-1HAA-E; conditions: mean of both orientations
P6-AA-1HAA-N = molecular target: T18, P6-AA-1HAA-N; conditions: mean of both orientations
P6-AA-1HAA-H = molecular target: T19, P6-AA-1HAA-H
P6-AA-1HAA-S = molecular target: T20, P6-AA-1HAA-S; conditions: mean of both orientations
P6-AA-1HAA-R = molecular target: T21, P6-AA-1HAA-R; conditions: mean of both orientations
P6-AA-1HAA-V = molecular target: T22, P6-AA-1HAA-V; conditions: mean of both orientations
P6-AA-1HAA-K = molecular target: T23, P6-AA-1HAA-K
P6-AA-12HAA-E = molecular target: T24, P6-AA-12HAA-E; conditions: mean of both orientations
P6-AA-12HAA-Y = molecular target: T25, P6-AA-12HAA-Y; conditions: mean of both orientations
P6-AA-12HAA-R = molecular target: T26, P6-AA-12HAA-R; conditions: mean of both orientations
P6-AA-12HAA-T = molecular target: T27, P6-AA-12HAA-T; conditions: mean of both orientations
P6-AA-12HAA-D = molecular target: T28, P6-AA-12HAA-D; conditions: mean of both orientations
P6-AA-12HAA-V = molecular target: T29, P6-AA-12HAA-V; conditions: mean of both orientations
P6-AA-12HAA-L = molecular target: T30, P6-AA-12HAA-L; conditions: mean of both orientations
P6-AA-12HAA-H = molecular target: T31, P6-AA-12HAA-H; conditions: mean of both orientations
P6-AA-12HAA-K = molecular target: T32, P6-AA-12HAA-K; conditions: mean of both orientations
P6-AA-12HAA-S = molecular target: T33, P6-AA-12HAA-S; conditions: mean of both orientations

| Binder | interaction score (P2-AA-12HAA-H) | interaction score (P2-AA-12HAA-S) | interaction score (P2-AA-12HAA-R) | interaction score (P2-AA-12HAA-I) | interaction score (P2-AA-12HAA-V) | interaction score (P2-AA-12HAA-K) | interaction score (P2-AA-12HAA-T) | interaction score (P2-AA-12HAA-D) | interaction score (P2-AA-12HAA-Y) | interaction score (P2-AA) | interaction score (P6-AA-1HAA-L) | interaction score (P6-AA-1HAA-T) | interaction score (P6-AA-1HAA-Y) | interaction score (P6-AA-1HAA-D) | interaction score (P6-AA-1HAA-E) | interaction score (P6-AA-1HAA-N) | interaction score (P6-AA-1HAA-S) | interaction score (P6-AA-1HAA-R) | interaction score (P6-AA-1HAA-V) | interaction score (P6-AA-1HAA-K; mean of both orientations) | further results |
| --- | --- | --- | --- | --- | --- | --- | --- | --- | --- | --- | --- | --- | --- | --- | --- | --- | --- | --- | --- | --- | --- |
| DEIAALEAESAALEAESAALEAEIAALEG [P1-AA-12HAA-S] | 1.58 | 1.26 | 1.11 | 1.69 | 1.8 | 0.951 | 0.962 | -0.855 | 0.635 | 2.24 | – | – | – | – | – | – | – | – | – | – | interaction score (P2-AA-12HAA-L; mean of both orientations): 2.15; interaction score (P2-AA-12HAA-E): -0.4 |
| DENAALEAKRAALKAKNAALKAEIAALEG [P5-AA-1HAA-R] | – | – | – | – | – | – | – | – | – | – | 2.18 | 1.54 | 0.0514 | -0.756 | -0.332 | 1.85 | 0.434 | -1.22 | 2.18 | -0.713 | interaction score (P6-AA-1HAA-H): -0.333 |
| DENAALEAKLAALKAKNAALKAEIAALEG [P5-AA-1HAA-L] | – | – | – | – | – | – | – | – | – | – | 2.49 | 2.08 | 1.93 | -0.436 | 1.45 | 1.66 | 1.85 | 1.43 | 2.31 | 1.78 | interaction score (P6-AA-1HAA-H; mean of both orientations): 1.55 |
| DENAALEAKNAALKAKNAALKAEIAALEG [P5-AA-1HAA-N] | – | – | – | – | – | – | – | – | – | – | 1.05 | 1.25 | 1.5 | -0.622 | 0.442 | 2.27 | 1.15 | 0.871 | 1.86 | 0.958 | interaction score (P6-AA-12HAA-E): -0.844; interaction score (P6-AA-12HAA-Y): 0.697; interaction score (P6-AA-12HAA-R): -0.112; interaction score (P6-AA-12HAA-T): -0.0689; interaction score (P6-AA-12HAA-D): -1.55; interaction score (P6-AA-12HAA-V): -0.62; interaction score (P6-AA-12HAA-L): -0.372; interaction score (P6-AA-1HAA-H; mean of both orientations): 1.2; interaction score (P6-AA-12HAA-H): 0.901; interaction score (P6-AA-12HAA-K): -0.291; interaction score (P6-AA-12HAA-S): -0.405 |
| DEIAALEAEEAALEAEEAALEAEIAALEG [P1-AA-12HAA-E] | 1.59 | 0.789 | 1.71 | 1.5 | 1.49 | 1.62 | 0.375 | -1.42 | -0.0466 | 1.91 | – | – | – | – | – | – | – | – | – | – | interaction score (P2-AA-12HAA-L; mean of both orientations): 1.82; interaction score (P2-AA-12HAA-E; mean of both orientations): -0.819 |

Now from value to binder, other results behind:

| interaction score (P2-AA-12HAA-H) | interaction score (P2-AA-12HAA-S) | interaction score (P2-AA-12HAA-R) | interaction score (P2-AA-12HAA-I) | interaction score (P2-AA-12HAA-V) | interaction score (P2-AA-12HAA-K) | interaction score (P2-AA-12HAA-T) | interaction score (P2-AA-12HAA-D) | interaction score (P2-AA-12HAA-Y) | interaction score (P2-AA) | interaction score (P6-AA-1HAA-L) | interaction score (P6-AA-1HAA-T) | interaction score (P6-AA-1HAA-Y) | interaction score (P6-AA-1HAA-D) | interaction score (P6-AA-1HAA-E) | interaction score (P6-AA-1HAA-N) | interaction score (P6-AA-1HAA-S) | interaction score (P6-AA-1HAA-R) | interaction score (P6-AA-1HAA-V) | interaction score (P6-AA-1HAA-K; mean of both orientations) | Binder | further results |
| --- | --- | --- | --- | --- | --- | --- | --- | --- | --- | --- | --- | --- | --- | --- | --- | --- | --- | --- | --- | --- | --- |
| – | – | – | – | – | – | – | – | – | – | 1.67 | 0.235 | 0.832 | -1.74 | -0.781 | 0.913 | -0.742 | -0.821 | 2.16 | – | DENAALEAKSAALKAKNAALKAEIAALEG [P5-AA-1HAA-S] | interaction score (P6-AA-1HAA-H; mean of both orientations): 0.0581; interaction score (P6-AA-1HAA-K): -1.01 |
| 0.974 | -0.0454 | -0.283 | 1.67 | 1.38 | -1.33 | 0.253 | -0.759 | 0.916 | 1.75 | – | – | – | – | – | – | – | – | – | – | DEIAALEAEKAALEAEKAALEAEIAALEG [P1-AA-12HAA-K] | interaction score (P2-AA-12HAA-L): 1.62; interaction score (P2-AA-12HAA-E; mean of both orientations): -0.226 |
